Assay [1] has as its target human carbonic anhydrase XII, catalytic domain (human).
Assay [2] shares this target. The assay can be described thus: other fluorescence titration.

Like-named read-outs stand apart in the source and are kept apart here.

For orientation: Kd means the free concentration of one partner at which half of the binding sites on the other are occupied at equilibrium, for simple one-to-one binding. Low values mean a tighter complex, high ones a looser complex. As for polylysine (peptide), the values for the dissociation constant Kd in assay [1] and in assay [2] were 3.3 µM and 6 µM, respectively.
